We go through one substance from publication PMC3282739.

Experiment [1] concerns the target Cthe_2751 (Clostridium thermocellum). The experiment can be described thus: AUC; sedimentation velocity in an analytical ultracentrifuge; curve generated with Sedfit.
The target is the same in experiment [2]. The experiment can be described thus: SEC; Hi Load 10/300 Superdex G75 gel filtration column equilibrated with 20 mM Tris-HCl, 100 mM NaCl, pH 8.0. A general note: Size exclusion chromatography separates by hydrodynamic size, large species first.

For the substance Cthe_2751 (natural protein), the stoichiometry N in experiment [1] and in experiment [2] was 2 each time.
